According to FireProtDB (doi:10.1021/bi002609i):

Conditions: Dictyostelium discoideum, reversible: yes
[1] = pH 5.59, 20 °C, Thermal, DSC, MES/NaMES 50 mM
[2] = pH 5.7, 20 °C, Urea, CD, KH2PO4/K2HPO4 50 mM
[3] = pH 5.7, 20 °C, Urea, CD, MES 50 mM
[4] = pH 5.7, 20 °C, Urea, Fluorescence, MES 50 mM
[5] = pH 5.75, 20 °C, Thermal, DSC, MES/NaMES 50 mM
[6] = pH 5.81, 20 °C, Thermal, DSC, MES/NaMES 50 mM
[7] = pH 6.03, 20 °C, Thermal, DSC, MES/NaMES 50 mM
[8] = pH 6.09, 20 °C, Thermal, DSC, MES/NaMES 50 mM
[9] = pH 6.2, 20 °C, Urea, Fluorescence, MES 50 mM, NaCl 400 mM
[10] = pH 6.2, 20 °C, Urea, Fluorescence, MES 50 mM
[11] = pH 6.25, 20 °C, Thermal, DSC, MES/NaMES 50 mM
[12] = pH 6.7, 20 °C, Urea, CD, KH2PO4/K2HPO4 50 mM
[13] = pH 6.7, 20 °C, Urea, Fluorescence, KH2PO4/K2HPO4 50 mM
[14] = pH 7.08, 5 °C, Urea, Fluorescence, KH2PO4/K2HPO4 50 mM
[15] = pH 7.7, 20 °C, Urea, CD, KH2PO4/K2HPO4 50 mM
[16] = pH 7.7, 20 °C, Urea, Fluorescence, KH2PO4/K2HPO4 50 mM
[17] = pH 8.15, 20 °C, Urea, Fluorescence, KH2PO4/K2HPO4 50 mM
[18] = pH 8.7, 20 °C, Urea, CD, Glycine/sodium glycine 50 mM
[19] = pH 8.7, 20 °C, Urea, Fluorescence, Glycine/sodium glycine 50 mM
[20] = pH 9.7, 20 °C, Urea, CD, Glycine/sodium glycine 50 mM
[21] = pH 9.7, 20 °C, Urea, Fluorescence, Glycine/sodium glycine 50 mM

Hisactophilin-1 wild type, sequence (P13231 whole entry, looked up): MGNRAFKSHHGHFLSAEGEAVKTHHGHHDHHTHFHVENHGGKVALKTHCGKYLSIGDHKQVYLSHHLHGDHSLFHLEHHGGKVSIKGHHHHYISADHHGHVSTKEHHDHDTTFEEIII

Hisactophilin-1 wild type (from UniProt P13231)
heat capacity change of unfolding [1]: 2.4 kcal/mol/K | unfolding free energy [1]: 1.5 kcal/mol | Tm (pH 5.59, Thermal, DSC, MES/NaMES 50 mM): 47 °C | denaturant m value [2]: 2.24 kcal/mol/M | denaturant midpoint (higher = more stable) [2]: 1.02 M | unfolding free energy [2]: 2.28 kcal/mol | denaturant m value [3]: 2.19 kcal/mol/M | denaturant midpoint (higher = more stable) [3]: 1.05 M | unfolding free energy [3]: 2.2 kcal/mol | denaturant m value [4]: 2.2 kcal/mol/M | denaturant midpoint (higher = more stable) [4]: 0.99 M | unfolding free energy [4]: 2.18 kcal/mol | heat capacity change of unfolding [5]: 2.4 kcal/mol/K | unfolding free energy [5]: 1.4 kcal/mol | Tm (pH 5.75, Thermal, DSC, MES/NaMES 50 mM): 48.9 °C | heat capacity change of unfolding [6]: 2.4 kcal/mol/K | unfolding free energy [6]: 2.1 kcal/mol | Tm (pH 5.81, Thermal, DSC, MES/NaMES 50 mM): 53.6 °C | heat capacity change of unfolding [7]: 2.4 kcal/mol/K | unfolding free energy [7]: 2.8 kcal/mol | Tm (pH 6.03, Thermal, DSC, MES/NaMES 50 mM): 58.3 °C | heat capacity change of unfolding [8]: 2.4 kcal/mol/K | unfolding free energy [8]: 4.1 kcal/mol | Tm (pH 6.09, Thermal, DSC, MES/NaMES 50 mM): 58.7 °C | denaturant m value [9]: 2.56 kcal/mol/M | denaturant midpoint (higher = more stable) [9]: 1.39 M | unfolding free energy [9]: 3.56 kcal/mol | denaturant m value [10]: 2.39 kcal/mol/M | denaturant midpoint (higher = more stable) [10]: 2.23 M | unfolding free energy [10]: 5.33 kcal/mol | heat capacity change of unfolding [11]: 2.4 kcal/mol/K | unfolding free energy [11]: 3.8 kcal/mol | Tm (pH 6.25, Thermal, DSC, MES/NaMES 50 mM): 61.7 °C | denaturant m value [12]: 1.63 kcal/mol/M | denaturant midpoint (higher = more stable) [12]: 3.1 M | unfolding free energy [12]: 5.04 kcal/mol | denaturant m value [13]: 1.62 kcal/mol/M | denaturant midpoint (higher = more stable) [13]: 3.08 M | unfolding free energy [13]: 5.1 kcal/mol | denaturant m value [14]: 1.67 kcal/mol/M | denaturant midpoint (higher = more stable) [14]: 2 M | unfolding free energy [14]: 3.34 kcal/mol | denaturant m value [15]: 1.63 kcal/mol/M | denaturant midpoint (higher = more stable) [15]: 4.31 M | unfolding free energy [15]: 7.11 kcal/mol | denaturant m value [16]: 1.59 kcal/mol/M | denaturant midpoint (higher = more stable) [16]: 4.26 M | unfolding free energy [16]: 6.78 kcal/mol | denaturant m value [17]: 1.65 kcal/mol/M | denaturant midpoint (higher = more stable) [17]: 4.61 M | unfolding free energy [17]: 7.59 kcal/mol | denaturant m value [18]: 1.46 kcal/mol/M | denaturant midpoint (higher = more stable) [18]: 5.18 M | unfolding free energy [18]: 7.55 kcal/mol | denaturant m value [19]: 1.49 kcal/mol/M | denaturant midpoint (higher = more stable) [19]: 5.19 M | unfolding free energy [19]: 7.75 kcal/mol | denaturant m value [20]: 1.53 kcal/mol/M | denaturant midpoint (higher = more stable) [20]: 4.58 M | unfolding free energy [20]: 7.03 kcal/mol | denaturant m value [21]: 1.65 kcal/mol/M | denaturant midpoint (higher = more stable) [21]: 4.76 M | unfolding free energy [21]: 7.85 kcal/mol
